Patent publication US20250143272A1

Key:
[1] = target: humanized NKP46 protein (engineered mouse NKP46 after humanization) (human/mouse chimera (human NKP46 amino acids 2-253 replacing mouse 2-253; rest mouse)); assay: flow cytometry, peripheral blood NK cells of NKP46 humanized homozygous mouse
[2] = target: mouse NKP46 (NCR1) protein, NP_034876.2 (mouse) (UniProt Q8C567); assay: flow cytometry, spleen NK cells of C57BL/6 wild-type mouse
[3] = target: mouse NKP46 (NCR1) protein, NP_034876.2 (mouse) (UniProt Q8C567); assay: flow cytometry, peripheral blood NK cells of C57BL/6 wild-type mouse
[4] = target: mouse NKP46 (NCR1) protein, NP_034876.2 (mouse) (UniProt Q8C567); assay: flow cytometry, spleen NK cells of NKP46 humanized heterozygous mouse (cells carry mouse and humanized NKP46)
[5] = target: mouse NKP46 (NCR1) protein, NP_034876.2 (mouse) (UniProt Q8C567); assay: flow cytometry, spleen NK cells of C57BL/6 wild-type mouse; remark: listed apart in the source
[6] = target: mouse NKP46 (NCR1) protein, NP_034876.2 (mouse) (UniProt Q8C567); assay: flow cytometry, peripheral blood NK cells of C57BL/6 wild-type mouse; remark: listed apart in the source
[7] = target: humanized NKP46 protein (engineered mouse NKP46 after humanization) (human/mouse chimera (human NKP46 amino acids 2-253 replacing mouse 2-253; rest mouse)); assay: flow cytometry, spleen NK cells of NKP46 humanized homozygous mouse
[8] = target: mouse NKP46 (NCR1) protein, NP_034876.2 (mouse) (UniProt Q8C567); assay: flow cytometry, peripheral blood NK cells of NKP46 humanized heterozygous mouse (cells carry mouse and humanized NKP46)
[9] = target: humanized NKP46 protein (engineered mouse NKP46 after humanization) (human/mouse chimera (human NKP46 amino acids 2-253 replacing mouse 2-253; rest mouse)); assay: flow cytometry, peripheral blood NK cells of NKP46 humanized heterozygous mouse
[10] = target: humanized NKP46 protein (engineered mouse NKP46 after humanization) (human/mouse chimera (human NKP46 amino acids 2-253 replacing mouse 2-253; rest mouse)); assay: flow cytometry, spleen NK cells of NKP46 humanized heterozygous mouse

Chain of humanized NKP46 protein (engineered mouse NKP46 after humanization) (human/mouse chimera (human NKP46 amino acids 2-253 replacing mouse 2-253; rest mouse)) (chain, as listed by the source mutant limits assumed): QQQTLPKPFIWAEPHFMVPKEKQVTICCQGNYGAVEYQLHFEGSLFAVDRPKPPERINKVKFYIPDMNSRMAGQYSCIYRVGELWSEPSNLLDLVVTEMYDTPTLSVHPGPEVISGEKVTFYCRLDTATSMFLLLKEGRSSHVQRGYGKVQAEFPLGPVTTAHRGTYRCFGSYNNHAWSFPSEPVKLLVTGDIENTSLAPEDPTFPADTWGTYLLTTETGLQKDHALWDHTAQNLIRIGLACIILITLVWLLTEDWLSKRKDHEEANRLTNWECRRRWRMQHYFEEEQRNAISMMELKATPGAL
Chain of UniProt Q8C567 (Q8C567 17-325 R131Q): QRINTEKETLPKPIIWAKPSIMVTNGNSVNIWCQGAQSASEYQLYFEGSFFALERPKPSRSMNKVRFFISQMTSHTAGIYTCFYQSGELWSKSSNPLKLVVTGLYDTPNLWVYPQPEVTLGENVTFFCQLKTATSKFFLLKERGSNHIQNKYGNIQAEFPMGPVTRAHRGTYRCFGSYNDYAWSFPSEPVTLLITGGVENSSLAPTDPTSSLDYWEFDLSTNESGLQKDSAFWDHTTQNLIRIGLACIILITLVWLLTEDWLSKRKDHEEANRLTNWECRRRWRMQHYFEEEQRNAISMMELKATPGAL

| Substance | % mCD45+ mNK1.1+ mNKP46+ cells [1] [%] | % mCD45+ mNK1.1+ mNKP46+ cells [2] [%] | % mCD45+ mNK1.1+ mNKP46+ cells [3] [%] | % mCD45+ mNK1.1+ mNKP46+ cells [4] [%] | % mCD45+ mNK1.1+ mNKP46+ cells [5] [%] | % mCD45+ mNK1.1+ mNKP46+ cells [6] [%] | % mCD45+ mNK1.1+ mNKP46+ cells [7] [%] | % mCD45+ mNK1.1+ mNKP46+ cells [8] [%] | % mCD45+ mNK1.1+ hNKP46+ cells [1] [%] | % mCD45+ mNK1.1+ hNKP46+ cells [2] [%] | % mCD45+ mNK1.1+ hNKP46+ cells [3] [%] | % mCD45+ mNK1.1+ hNKP46+ cells [9] [%] | % mCD45+ mNK1.1+ hNKP46+ cells [5] [%] | % mCD45+ mNK1.1+ hNKP46+ cells [6] [%] | % mCD45+ mNK1.1+ hNKP46+ cells [10] [%] | % mCD45+ mNK1.1+ hNKP46+ cells [7] [%] |
| --- | --- | --- | --- | --- | --- | --- | --- | --- | --- | --- | --- | --- | --- | --- | --- | --- |
| APC anti-mouse CD335 (NKP46) Antibody (BioLegend, Catalog number: 137607) | 0.009 | 2.25 | 3.96 | 3.44 | 4.21 | 2.81 | 0.035 | 4.33 |  |  |  |  |  |  |  |  |
| PE anti-human CD335 (NKP46) Antibody (BioLegend, Catalog number: 331907) |  |  |  |  |  |  |  |  | 3.55 | 0.11 | 0.056 | 4.95 | 0.14 | 0.034 | 4.08 | 2.79 |
